B1: FLOT1 (parent)
chain: QMAKKAEAFQLYQEAAQLDMLLEK

Variants of: B1
Test: protein stability index of a GFP-peptide fusion (GPS, HEK-293T) (PSI 1-6); higher = more stable
Conditions: c terminus: a fixed tail appended
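Also: lentivirally expressed fusions sorted by FACS into six bins by GFP to DsRed ratio, PSI derived from sequencing read proportions per bin multiplied by bin number.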

Row | Variant | protein stability index
1 | QMAKKAEYFQLYQEAAQLDMLLEK | 1.03
2 | QMAKKAEEFQLYQEAAQLDMLLEK | 2.49
3 | QMAKKAENFQLYQEAAQLDMLLEK | 1.4
4 | QMAKKAEFFQLYQEAAQLDMLLEK | 3.96
5 | QMAKKAEPFQLYQEAAQLDMLLEK | 1.98
6 | QMAKKAEVFQLYQEAAQLDMLLEK | 1.2
7 | QMAKKAEHFQLYQEAAQLDMLLEK | 1.42
8 | QMAKKAETFQLYQEAAQLDMLLEK | 1.83
9 | QMAKKAECFQLYQEAAQLDMLLEK | 1.7
10 | QMAKKAEAFQLYQECAQLDMLLEK | 2.65
11 | QMAKKAEAFQLYQEDAQLDMLLEK | 4.62
12 | QMAKKAEAFQLYQCAAQLDMLLEK | 2.61
13 | QMAKKAEAFQLYQRAAQLDMLLEK | 2.21
14 | QMAKKAEAFQLYQAAAQLDMLLEK | 1.3
15 | QMAKKAEAFQLYQGAAQLDMLLEK | 2.58
16 | QMAKKAEAFQLYQSAAQLDMLLEK | 2.03
17 | QMAKKAEAFQLYQDAAQLDMLLEK | 2.13
18 | QMAKKAEAFQLYQWAAQLDMLLEK | 1.96
19 | QMAKKAEAFQLYQHAAQLDMLLEK | 1.94
20 | QMAKKAEAFQLYQIAAQLDMLLEK | 3.03
21 | QMAKKAEAFQLYQTAAQLDMLLEK | 1.97
22 | QMAKKAEAFQLYQYAAQLDMLLEK | 2.71
23 | QMAKKAEAFQLYQPAAQLDMLLEK | 3.12
24 | QMAKKAEAFQLYQNAAQLDMLLEK | 2.5

Row | Variant | protein stability index
25 | QMAKKAEAFQLYQQAAQLDMLLEK | 1.36
26 | QMAKKAEAFQLYQKAAQLDMLLEK | 1.83
27 | QMAKKAEAFQLYQLAAQLDMLLEK | 1.97
28 | QMAKKAYAFQLYQEAAQLDMLLEK | 1.8
29 | QMAKKARAFQLYQEAAQLDMLLEK | 1.22
30 | QMAKKATAFQLYQEAAQLDMLLEK | 1.36
31 | QMAKKADAFQLYQEAAQLDMLLEK | 1.55
32 | QMAKKACAFQLYQEAAQLDMLLEK | 1.86
33 | QMAKKAVAFQLYQEAAQLDMLLEK | 1.91
34 | QMAKKAPAFQLYQEAAQLDMLLEK | 2.07
35 | QMAKKASAFQLYQEAAQLDMLLEK | 4
36 | QMAKKANAFQLYQEAAQLDMLLEK | 2.05
37 | QMAKKAMAFQLYQEAAQLDMLLEK | 1.64
38 | QMAKKAHAFQLYQEAAQLDMLLEK | 2.24
39 | QMAKKAIAFQLYQEAAQLDMLLEK | 1.4
40 | QMAKKAAAFQLYQEAAQLDMLLEK | 2.46
41 | QMAKKALAFQLYQEAAQLDMLLEK | 2.95
42 | QMAKKAEAFVLYQEAAQLDMLLEK | 2.87
43 | QMAKKAEAFNLYQEAAQLDMLLEK | 2.03
44 | QMAKKAEAFLLYQEAAQLDMLLEK | 2.09
45 | QMAKKAEAFTLYQEAAQLDMLLEK | 2.79
46 | QMAKKAEAFGLYQEAAQLDMLLEK | 1.72
47 | QMAKKAEAFSLYQEAAQLDMLLEK | 2.06
48 | QMAKKAEAFALYQEAAQLDMLLEK | 2.07

Row | Variant | protein stability index
49 | QMAKKAEAFCLYQEAAQLDMLLEK | 1.74
50 | QMAKKAEAFMLYQEAAQLDMLLEK | 1.52
51 | QMAKKAEAFKLYQEAAQLDMLLEK | 1.32
52 | QMAKKAEAFDLYQEAAQLDMLLEK | 2.01
53 | QMAKKAEAFYLYQEAAQLDMLLEK | 2.59
54 | QMAKKAEAFHLYQEAAQLDMLLEK | 2.03
55 | QMAKKAEAFPLYQEAAQLDMLLEK | 2.08
56 | QMAKKAEAFFLYQEAAQLDMLLEK | 1.28
57 | QMAKKAEAFELYQEAAQLDMLLEK | 2.49
58 | QMAKKAEAFRLYQEAAQLDMLLEK | 1.87
59 | QMAKTAEAFQLYQEAAQLDMLLEK | 2.01
60 | QMAKQAEAFQLYQEAAQLDMLLEK | 1.59
61 | QMAKSAEAFQLYQEAAQLDMLLEK | 1.22
62 | QMAKFAEAFQLYQEAAQLDMLLEK | 2.8
63 | QMAKVAEAFQLYQEAAQLDMLLEK | 1.78
64 | QMAKPAEAFQLYQEAAQLDMLLEK | 2.83
65 | QMAKRAEAFQLYQEAAQLDMLLEK | 2.3
66 | QMAKCAEAFQLYQEAAQLDMLLEK | 2.68
67 | QMAKEAEAFQLYQEAAQLDMLLEK | 2.21
68 | QMAKGAEAFQLYQEAAQLDMLLEK | 1.92
69 | QMAKHAEAFQLYQEAAQLDMLLEK | 1.75
70 | QMAKLAEAFQLYQEAAQLDMLLEK | 3.38
71 | QMAKIAEAFQLYQEAAQLDMLLEK | 2.49
72 | QMAKDAEAFQLYQEAAQLDMLLEK | 2.1

Row | Variant | protein stability index
73 | QMAKNAEAFQLYQEAAQLDMLLEK | 1.42
74 | QVAKKAEAFQLYQEAAQLDMLLEK | 1.22
75 | QSAKKAEAFQLYQEAAQLDMLLEK | 1.14
76 | QQAKKAEAFQLYQEAAQLDMLLEK | 2.01
77 | QYAKKAEAFQLYQEAAQLDMLLEK | 2.1
78 | QTAKKAEAFQLYQEAAQLDMLLEK | 1.76
79 | QMAKKAEAFQLYREAAQLDMLLEK | 2.81
80 | QMAKKAEAFQLYKEAAQLDMLLEK | 2.62
81 | QMAKKAEAFQLYYEAAQLDMLLEK | 1.96
82 | QMAKKAEAFQLYCEAAQLDMLLEK | 2.46
83 | QMAKKAEAFQLYEEAAQLDMLLEK | 2.92
84 | QMAKKAEAFQLYGEAAQLDMLLEK | 3.57
85 | QMAKKAEAFQLYMEAAQLDMLLEK | 3.5
86 | QMAKKAEAFQLYLEAAQLDMLLEK | 3.2
87 | QMAKKAEAFQLYPEAAQLDMLLEK | 3.87
88 | QMAKKAEAFQLYHEAAQLDMLLEK | 3.6
89 | QMAKKAEAFQLYDEAAQLDMLLEK | 4.08
90 | QMAKKAEAFQLYNEAAQLDMLLEK | 3.82
91 | QMAKKAEAFQLYIEAAQLDMLLEK | 2.49
92 | QMAKKAEAFQLYTEAAQLDMLLEK | 2.85
93 | QMAKKAEAFQLYSEAAQLDMLLEK | 1.8
94 | QMAKKAEAFQLYFEAAQLDMLLEK | 1.52
